Where two headings read alike, the source gives them in different places.
Assays:
Assay in all cases: cell-based or functional assay
[1] = target: human PVRIG expressed on cells (human) (UniProt Q6DKI7)
[2] = target: human PVRIG expressed on cells (human) (UniProt Q6DKI7); remark: listed apart in the source
[3] = target: human PVRIG expressed on cells (human) (UniProt Q6DKI7); remark: listed apart in the source

human PVRIG expressed on cells (human), sequence (Q6DKI7 41-326 limits assumed, form in doubt): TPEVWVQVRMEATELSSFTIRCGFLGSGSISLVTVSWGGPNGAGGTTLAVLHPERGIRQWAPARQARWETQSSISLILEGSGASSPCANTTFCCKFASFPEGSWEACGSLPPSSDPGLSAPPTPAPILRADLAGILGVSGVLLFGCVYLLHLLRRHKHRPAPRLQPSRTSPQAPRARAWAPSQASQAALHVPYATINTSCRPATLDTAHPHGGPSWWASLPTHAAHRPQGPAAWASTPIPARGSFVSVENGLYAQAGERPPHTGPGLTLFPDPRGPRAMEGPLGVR

MLR IFNγ (pg/mL), 20 nM antibody (control baseline) [1]: 74 pg/mL
MLR IFNγ (pg/mL), 100 nM antibody (control baseline) [1]: 89 pg/mL
MLR IFNγ (pg/mL), 4 nM antibody (control baseline) [3]: 984 pg/mL
MLR IFNγ (pg/mL), 20 nM antibody (control baseline) [3]: 814 pg/mL
MLR IFNγ (pg/mL), 100 nM antibody (control baseline) [3]: 1310 pg/mL
Substance: IgG4 (control antibody)
NK92 killing of K562, killing activity (%), 4 nM antibody (control baseline) [2]: 11.2%
NK92 killing of K562, killing activity (%), 20 nM antibody (control baseline) [2]: 11.7%
NK92 killing of K562, killing activity (%), 100 nM antibody (control baseline) [2]: 9.2%
NK92 killing of K562, killing activity (%), 20 nM antibody (control baseline) [3]: 22%
NK92 killing of K562, killing activity (%), 100 nM antibody (control baseline) [3]: 22%

Reference: patent US20240376207A1
